# Measurements published in US20160038571A1.
# Legend:
# calcineurin (CNA/B) = calcineurin (CNA/B) (UniProt Q08209); assay: ITC
# [1] = biological target: pre-formed RCAN1^128-164:calcineurin complex, Q08209; assay: ITC, peptide titrated into the pre-formed RCAN1^128-164:calcineurin complex
Kd (calcineurin (CNA/B)),fold decrease in Kd (against unmutated RCAN1) (calcineurin (CNA/B)),Molecule,also measured
,,RCAN1 construct with the PxIxIT (SEQ ID NO: 9) motif deleted,fold decrease in binding affinity (calcineurin (CNA/B)): 220 fold
0.01 µM,,RCAN1^89-197 (from UniProt O35847 89-142),
0.3 µM,,RCAN1^128-192 (from UniProt P53805 183-247),
,220 fold,RCAN1 mutant PSVVVH (SEQ ID NO: 13) →ASAVAA (SEQ ID NO: 18) (from UniProt P53805 56-252),
,2.5 fold,RCAN1 mutant HLAPP (SEQ ID NO: 16) →AAAAA (SEQ ID NO: 17) (from UniProt P53805 56-252),
,,RPKPKIIQTRRPEYT (modifications not checked) [peptide consisting of RCAN1^178-192 that includes the TxxP (SEQ ID NO: 11) site],Kd [1]: 15 µM
